Measured values as given in publication PMC8612531 (Science Advances, 2021).
Substitutions are numbered along the chain they refer to. Names and notes keep the numbering of the source.

B1: XccBphP R525E-R527E full-length variant, apoprotein (natural protein)
chain: STATNPLDLDVCAREPIHIPGLIQPYGVLLVIDPADGRIVQASTTAADLLGVPMAALLGMPYTQVLTLPEAQPFAVDDQPQHLMHAEVRFPQRATPPASAWVAAWHLYPQQWLVEMEPRDARLLDVTLREAMPLLRSVERDPGIAEAAVRVAKGLRSLIGFDRVMIYRFDEEWNGDIIAEARKPELEAYLGLHYPASDIPAQARALYLRNRVRQIADVGYQPSPIQPTVHPQLGTPVDLSDVSLRSVSPVHLEYLANMGVTATLVASIVVNDALWGLISCHHYSPHFTNHAMRDVTDAVARTLAGRIGALQAVARARLESVLLTVREKLITDFNDAEHMTVELLDDMAPDLMDVVDADGVAIFHGNDISRHGTTPDVAALRRIRDHIESEHHEALREDAVGALHVDAIGEVFPELADLAPLAAGFIFVPLMPQSRSALLWTRREQIQQIKWAGNPQLAKLEDIPNSRLSPRKSFDLWQQTVRGRARRWSPLHLESARSLRVLIELMERKRFQQDFTLLEASLSELEDGVAIIERGTANAAHRLLFVNTAFADVCGSDVAELIGRELQTLYASDAPRANVELLQDALRNGRAAYVTLPLQVSDGAPVYRQFHLEPLPSPSGVTAHWLLQLRDPE
B2: XccBphP G454A variant, holoprotein (biliverdin-bound) (natural protein)
chain: B1 chain with G453A, E524R, E526R
modifications: biliverdin IXα (BV) covalently bound to Cys13 (thioether linkage)
B3: XccBphP A453E variant, apoprotein (natural protein)
chain: B1 chain with A452E, E524R, E526R
B4: XccBphP wild-type full-length bacteriophytochrome, apoprotein (natural protein)
chain: B1 chain with E524R, E526R
B5: XccBphP G454E full-length variant, holoprotein (biliverdin-bound) (natural protein)
chain: B1 chain with G453E, E524R, E526R
modifications: biliverdin IXα (BV) covalently bound to Cys13 (thioether linkage)
B6: XccBphP W478A variant, apoprotein (natural protein)
chain: B1 chain with W477A, E524R, E526R
B7: XccBphP F512P variant, apoprotein (natural protein)
chain: B1 chain with F511P, E524R, E526R
B8: XccBphP W452A-G454E variant, apoprotein (natural protein)
chain: B1 chain with W451A, G453E, E524R, E526R
B9: XccBphP G454E full-length variant, apoprotein (natural protein)
chain: B1 chain with G453E, E524R, E526R
B10: XccBphP G454A variant, apoprotein (natural protein)
chain: B1 chain with G453A, E524R, E526R

Columns and labels:
[1] = biological target: A0A0H2; experiment: SEC-MALS
[2] = biological target: the molecule itself; experiment: SEC-MALS
[3] = biological target: the molecule itself; experiment: SEC
[4] = biological target: the molecule itself; experiment: crystal structure

Row | Protein | stoichiometry N [2] | further results
1 | B1 | 2 | percent monomer (main peak) [1]: Monomer (~85%); percent dimer (secondary peak) [2]: ~15%
2 | B2 |  | binding result [3]: binds
3 | B3 | 2 | 
4 | B4 | 2 | 
5 | B5 |  | binding result [4]: binds
6 | B6 | 2 | 
7 | B7 | 2 | 
8 | B8 | 2 | 
9 | B9 | 2 | 
10 | B10 | 2 | 
